# Laboratory results: article PMC10784468 (Nature Communications, 2024)
# Like-named read-outs stand apart in the source and are kept apart here. Positions of bridges follow the written chain, without caps; N, C: chain ends. Residues, ends and D or L forms follow the SMILES beside them. *: point of attachment. X1 = O=C(O)c1ccc(-c2c3nc(c(-c4ccc(C(=O)O)cc4)c4ccc([nH]4)c(-c4ccc(C(=O)*)cc4)c4nc(c(-c5ccc(C(=O)O)cc5)c5ccc2[nH]5)C=C4)C=C3)cc1; X2 = O=C(O)C/C(=C/C(=O)*)C(=O)O
# How the values were obtained:
# [1] = Cy-labeled
# Description: Firstly, A density of 5 × 10^6 EJ cell resuspended in Matrigel were subcutaneously injected into the right hind of mice to construct EJ xenograft model. When the tumor volume reached about 200–400 mm^3, the mice were administrated with Cy labeled Gi-F ([…]), Cy labeled Gi-F-SA ([…]) and Cy labeled Gi-F-CAA ([…]) by intravenous injection for in vivo fluorescence imaging at different timepoints (10 min, 20 min, 40 min, 1 h, 2 h, 4 h, 8 h, 12 h and 24 h) with in vivo imaging system (IVIS). Meanwhile, the EJ xenograft mice were sacrificed for collecting major organs and tumors to evaluate the biodistribution of Gi-F-CAA.
# EJ cells = assay: Cellular imaging (uptake) by CLSM; format: cell-based; conditions: Cy7-labeled, 40 μM, 2 h
# Description: Initially, EJ cells (5 × 10^5) were cultured in confocal dish with a CO2 incubator overnight at 37 °C. Subsequently, the EJ cells were incubated with Cy labeled Gi-F-CAA (40 μM, pH = 7.4) and Cy labeled Gi-F-CAA (40 μM, pH = 6.5) for 2 h followed by washing with PBS for three times.
# PTGS2 = assay: Tumor PTGS2 content detection; format: in vivo, BALB/c nude mice; conditions: EJ tumor tissues, 8 mg/kg i.v., versus PBS, Gi-F and Gi-F-SA
# Description: EJ tumor tissues were collected under euthanasia at the end of treatment and washed with PBS for 3 times. Afterwards, the immunofluorescence analyses of Prostaglandin-Endoperoxide Synthase 2 (PTGS2) expression were performed with Wuhan Servicebio Technology Co., Ltd.
# 786-O xenograft tumors = assay: In vivo antitumor evaluation in large tumor model (786-O); design: species or system BALB/c nude mice; conditions: six i.v. injections at 2-days intervals, Gi-F-CAA 8 mg/kg, Bevacizumab 5 mg/kg
# [2] = ex vivo, i.v., EJ xenograft mice
# [3] = ex vivo, EJ xenograft mice, i.v. 0.5 mg/kg, mice 1
# [4] = ex vivo, EJ xenograft mice, i.v. 0.5 mg/kg, mice 2
# [5] = ex vivo, EJ xenograft mice, i.v. 0.5 mg/kg, mice 3
# [6] = ex vivo, EJ xenograft mice, i.v. 1 mg/kg, mice 1
# [7] = ex vivo, EJ xenograft mice, i.v. 1 mg/kg, mice 2
# [8] = ex vivo, EJ xenograft mice, i.v. 1 mg/kg, mice 3
# [9] = ex vivo, EJ xenograft mice, i.v. 2 mg/kg, mice 1
# [10] = ex vivo, EJ xenograft mice, i.v. 2 mg/kg, mice 2
# [11] = ex vivo, EJ xenograft mice, i.v. 2 mg/kg, mice 3
# [12] = ex vivo, EJ xenograft mice, i.v. 4 mg/kg, mice 1
# [13] = ex vivo, EJ xenograft mice, i.v. 4 mg/kg, mice 2
# [14] = ex vivo, EJ xenograft mice, i.v. 4 mg/kg, mice 3
# [15] = ex vivo, EJ xenograft mice, i.v. 8 mg/kg, mice 1
# [16] = ex vivo, EJ xenograft mice, i.v. 8 mg/kg, mice 2
# [17] = ex vivo, EJ xenograft mice, i.v. 8 mg/kg, mice 3
compound,measurement,setting,value
CC(C)C[C@H](NC(=O)c1ccc(-c2c3nc(c(-c4ccc(C(=O)O)cc4)c4ccc([nH]4)c(-c4ccc(C(=O)O)cc4)c4nc(c(-c5ccc(C(=O)O)cc5)c5ccc2[nH]5)C=C4)C=C3)cc1)C(=O)N[C@@H](CCCCNC(=O)/C=C(/CC(=O)O)C(=O)O)C(=O)N[C@@H](CC(C)C)C(=O)N[C@@H](CCCCN)C(=O)N[C@@H](CC(C)C)C(=O)N[C@@H](CCCCNC(=O)/C=C(/CC(=O)O)C(=O)O)C(=O)NCC(=O)N[C@@H](C)C(=O)N[C@H]1CSSC[C@@H](C(=O)N2CCC[C@H]2C(=O)N[C@H](C(=O)O)C(C)C)NC(=O)[C@@H]2CCCN2C(=O)[C@H](Cc2ccc(O)cc2)NC(=O)[C@H](CC(C)C)NC(=O)[C@@H]2CCCN2C(=O)[C@H](CC(C)C)NC(=O)[C@H](Cc2c[nH]c3ccccc23)NC(=O)[C@H](CC(N)=O)NC1=O [Gi-F-CAA] (X1-LK(X2)LKLK(X2)GACNWLPLYPCPV-OH; disulfide 9-17; C-terminus assumed),ex vivo fluorescence signal at the tumor,"[1]; 8 mg/kg i.v., versus Gi-F and Gi-F-SA groups",strong fluorescence signal
same,fluorescence intensity at tumor relative to kidney,[1]; [2],~ 2.4 fold
same,fluorescence intensity at tumor relative to liver,[1]; [2],~ 1.9 fold
same,kidney Average FI,[1]; [3],1.89E+07 x10^8 p/cm2/s
same,liver Average FI,[1]; [3],2.16E+07 x10^8 p/cm2/s
same,tumor Average FI,[1]; [3],1.51E+07 x10^8 p/cm2/s
same,kidney Average FI,[1]; [4],1.50E+07 x10^8 p/cm2/s
same,liver Average FI,[1]; [4],1.85E+07 x10^8 p/cm2/s
same,tumor Average FI,[1]; [4],1.10E+07 x10^8 p/cm2/s
same,kidney Average FI,[1]; [5],1.59E+07 x10^8 p/cm2/s
same,liver Average FI,[1]; [5],1.52E+07 x10^8 p/cm2/s
same,tumor Average FI,[1]; [5],1.37E+07 x10^8 p/cm2/s
same,kidney Average FI,[1]; [6],3.76E+07 x10^8 p/cm2/s
same,liver Average FI,[1]; [6],4.34E+07 x10^8 p/cm2/s
same,tumor Average FI,[1]; [6],2.76E+07 x10^8 p/cm2/s
same,kidney Average FI,[1]; [7],3.14E+07 x10^8 p/cm2/s
same,liver Average FI,[1]; [7],3.92E+07 x10^8 p/cm2/s
same,tumor Average FI,[1]; [7],2.99E+07 x10^8 p/cm2/s
same,kidney Average FI,[1]; [8],3.06E+07 x10^8 p/cm2/s
same,liver Average FI,[1]; [8],3.19E+07 x10^8 p/cm2/s
same,tumor Average FI,[1]; [8],3.48E+07 x10^8 p/cm2/s
same,kidney Average FI,[1]; [9],5.61E+07 x10^8 p/cm2/s
same,liver Average FI,[1]; [9],6.33E+07 x10^8 p/cm2/s
same,tumor Average FI,[1]; [9],4.80E+07 x10^8 p/cm2/s
same,kidney Average FI,[1]; [10],4.60E+07 x10^8 p/cm2/s
same,liver Average FI,[1]; [10],5.75E+07 x10^8 p/cm2/s
same,tumor Average FI,[1]; [10],3.97E+07 x10^8 p/cm2/s
same,kidney Average FI,[1]; [11],4.92E+07 x10^8 p/cm2/s
same,liver Average FI,[1]; [11],4.67E+07 x10^8 p/cm2/s
same,tumor Average FI,[1]; [11],3.88E+07 x10^8 p/cm2/s
same,kidney Average FI,[1]; [12],7.41E+07 x10^8 p/cm2/s
same,liver Average FI,[1]; [12],9.04E+07 x10^8 p/cm2/s
same,tumor Average FI,[1]; [12],9.54E+07 x10^8 p/cm2/s
same,kidney Average FI,[1]; [13],6.02E+07 x10^8 p/cm2/s
same,liver Average FI,[1]; [13],7.81E+07 x10^8 p/cm2/s
same,tumor Average FI,[1]; [13],8.23E+07 x10^8 p/cm2/s
same,kidney Average FI,[1]; [14],6.88E+07 x10^8 p/cm2/s
same,liver Average FI,[1]; [14],6.42E+07 x10^8 p/cm2/s
same,tumor Average FI,[1]; [14],9.16E+07 x10^8 p/cm2/s
same,kidney Average FI,[1]; [15],8.52E+07 x10^8 p/cm2/s
same,liver Average FI,[1]; [15],1.07E+08 x10^8 p/cm2/s
same,tumor Average FI,[1]; [15],2.09E+08 x10^8 p/cm2/s
same,kidney Average FI,[1]; [16],6.80E+07 x10^8 p/cm2/s
same,liver Average FI,[1]; [16],9.09E+07 x10^8 p/cm2/s
same,tumor Average FI,[1]; [16],1.62E+08 x10^8 p/cm2/s
same,kidney Average FI,[1]; [17],7.55E+07 x10^8 p/cm2/s
same,liver Average FI,[1]; [17],8.19E+07 x10^8 p/cm2/s
same,tumor Average FI,[1]; [17],1.71E+08 x10^8 p/cm2/s
same,cellular uptake (CLSM) at pH 6.5,EJ cells; pH 6.5,obvious fluorescence signal was observed in the cytoplasm
same,cellular uptake (CLSM) at pH 7.4,EJ cells; pH 7.4,barely detected
same,PTGS2 levels of tumor tissues,PTGS2,elevation
same,tumor volume course in large tumors (~500 mm^3),786-O xenograft tumors,declining tendency for 10 days and maintained a long-termed tumor growth inhibition
